Measurements published in the supplement of paper PMC10724198.
± gives the standard deviation of the averaged measurements.

Legend:
[1] = system: Saccharomyces cerevisiae; assay: protein stability index of tFT-peptide fusion (C-terminal peptide) (PSI (0-1 scale)); higher = more stable (slower turnover)
Method: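 MPS profiling in S. cerevisiae of the tFT-X12 degron library: putative degron peptides plus stable controls, 12 aa, fused to the C-terminus of a sfGFP-mCherry timer. Cells are FACS-sorted into 8 mCherry/sfGFP bins and deep-sequenced. PSI runs from 0 (unstable) to 1 (stable). Backgrounds are wild type, das1Δ and doa10Δ at 30 °C, and wild type, das1Δ, cdc34-1 and cdc53-1 at 37 °C; 2-3 technical replicates each.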

[2] = system: Saccharomyces cerevisiae; assay: as above; conditions: genetic background: wild type; temperature: 30 C
[3] = genetic background: cdc34-1, temperature: 37 C
[4] = genetic background: cdc53-1, temperature: 37 C
[5] = genetic background: das1 deletion, temperature: 30 C
[6] = genetic background: das1 deletion, temperature: 37 C
[7] = genetic background: doa10 deletion, temperature: 30 C
[8] = genetic background: wild type, temperature: 30 C
[9] = genetic background: wild type, temperature: 37 C
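Further: PSI is a weighted mean of sequencing reads over stability bins, variants kept only with over 10 reads, mCherry proximal and sfGFP distal, peptide attached via GGGS linker.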

Row | Sequence | protein stability index [1, 3] | protein stability index [1, 4] | protein stability index [1, 5] | protein stability index [1, 6] | protein stability index [1, 7] | protein stability index [1, 8] | protein stability index [1, 9] | protein stability index [2]
1 | SWWISKWVGLNC | 0.705 ± 0.0095 | 0.778 ± 0.01 | 0.636 ± 0.013 | 0.7821 ± 0.0033 | 0.367 ± 0.0053 | 0.402 ± 0.043 | 0.6358 ± 0.0049 | 0.52 ± 0.034
2 | SYMWLVEVLLFI | 0.229 ± 0.0074 | 0.306 ± 0.0063 | 0.196 ± 0.028 | 0.386 ± 0.019 | 0.173 ± 0.012 | 0.189 ± 0.012 | 0.33 ± 0.0059 | 0.264 ± 0.038
3 | SYVFEFIVSVVF | 0.208 ± 0.016 | 0.347 ± 0.011 | 0.253 ± 0.03 | 0.373 ± 0.015 | 0.23 ± 0.0064 | 0.255 ± 0.014 | 0.341 ± 0.016 | 0.315 ± 0.0044
4 | SYVVVFVIFCVG | 0.1826 ± 0.00046 | 0.281 ± 0.028 | 0.206 ± 0.03 | 0.3424 ± 0.0014 | 0.173 ± 0.0049 | 0.214 ± 0.015 | 0.301 ± 0.0081 | 0.224 ± 0.099
5 | TDFICLLWLLHW | 0.552 ± 0.035 | 0.535 ± 0.058 | 0.422 ± 0.02 | 0.5698 ± 0.0043 | 0.3864 ± 0.0017 | 0.41 ± 0.032 | 0.535 ± 0.014 | 0.565 ± 0.12
6 | TFRVRRQKNRNM | 0.628 ± 0.021 | 0.692 ± 0.039 | 0.631 ± 0.022 | 0.725 ± 0.013 | 0.0838 ± 0.015 | 0.099 ± 0.013 | 0.217 ± 0.012 | 0.236 ± 0.012
7 | TLFSFLLVFVFG | 0.209 ± 0.0076 | 0.315 ± 0.0035 | 0.228 ± 0.035 | 0.386 ± 0.0047 | 0.185 ± 0.019 | 0.206 ± 0.031 | 0.35 ± 0.0049 | 0.411 ± 0.017
8 | TLLMVSMTVRPL | 0.3005 ± 0.00077 | 0.379 ± 0.02 | 0.274 ± 0.022 | 0.411 ± 0.011 | 0.26 ± 0.0094 | 0.272 ± 0.022 | 0.398 ± 0.036 | 0.38 ± 0.0051
9 | TPPLPTTPTLNS | 0.641 ± 0.022 | 0.713 ± 0.022 | 0.718 ± 0.027 | 0.703 ± 0.021 | 0.722 ± 0.025 | 0.71 ± 0.011 | 0.684 ± 0.021 | 0.732 ± 0.025
10 | TPRQYVVSLSLC | 0.579 ± 0.027 | 0.657 ± 0.033 | 0.587 ± 0.039 | 0.703 ± 0.015 | 0.131 ± 0.0045 | 0.123 ± 0.0062 | 0.227 ± 0.0063 | 0.19 ± 0.067
11 | TRVVSPNVILMC | 0.6679 ± 0.00086 | 0.7417 ± 0.0073 | 0.61 ± 0.027 | 0.725 ± 0.019 | 0.5135 ± 0.0048 | 0.526 ± 0.022 | 0.673 ± 0.009 | 0.505 ± 0.017
12 | TTSHFCVVLVSV | 0.283 ± 0.042 | 0.307 ± 0.016 | 0.232 ± 0.039 | 0.382 ± 0.009 | 0.182 ± 0.012 | 0.217 ± 0.032 | 0.356 ± 0.013 | 0.32 ± 0.016
13 | TVERKMYWQRWG | 0.666 ± 0.029 | 0.745 ± 0.025 | 0.641 ± 0.011 | 0.754 ± 0.01 | 0.1794 ± 0.00073 | 0.187 ± 0.0033 | 0.4975 ± 0.0044 | 0.391 ± 0.045
14 | TVGVGWVWVGVL | 0.5667 ± 0.00058 | 0.611 ± 0.026 | 0.446 ± 0.026 | 0.649 ± 0.015 | 0.367 ± 0.0044 | 0.403 ± 0.015 | 0.576 ± 0.015 | 0.467 ± 0.015
15 | TVIVCCHLEVVY | 0.0776 ± 0.07 | 0.0367 ± 0.024 | 0.0294 ± 0.014 | 0.0693 ± 0.013 | 0.0254 ± 0.013 | 0.0249 ± 0.0089 | 0.0685 ± 0.023 | 0.0135 ± 0.0057
16 | VAALLCWLHLYA | 0.602 ± 0.018 | 0.639 ± 0.02 | 0.509 ± 0.019 | 0.622 ± 0.032 | 0.362 ± 0.007 | 0.409 ± 0.029 | 0.563 ± 0.0096 | 0.498 ± 0.011
17 | VAFVVALSLIFL | 0.327 ± 0.019 | 0.443 ± 0.014 | 0.306 ± 0.028 | 0.424 ± 0.0062 | 0.281 ± 0.019 | 0.333 ± 0.043 | 0.43 ± 0.023 | 0.386 ± 0.0059
18 | VALSILCVFFFF | 0.253 ± 0.021 | 0.357 ± 0.01 | 0.272 ± 0.035 | 0.4457 ± 0.0032 | 0.24 ± 0.025 | 0.273 ± 0.022 | 0.383 ± 0.0064 | 0.309 ± 0.055
19 | VARLGGRIGWEG | 0.694 ± 0.022 | 0.736 ± 0.019 | 0.634 ± 0.014 | 0.763 ± 0.015 | 0.652 ± 0.026 | 0.646 ± 0.013 | 0.7208 ± 0.0018 | 0.548 ± 0.17
